Reference: article PMC5864728

Target: human ICAM-1 extracellular domain with human IgG1 Fc (UniProt P05362)
Assay: flow cytometry on cells
Details: HEK293FT cells; co-expressed with β2-WT and GFP-TH; parent: est. 270; read off a plot

Sequence of UniProt P05362 (P05362 whole entry, looked up, the tested form may be a part): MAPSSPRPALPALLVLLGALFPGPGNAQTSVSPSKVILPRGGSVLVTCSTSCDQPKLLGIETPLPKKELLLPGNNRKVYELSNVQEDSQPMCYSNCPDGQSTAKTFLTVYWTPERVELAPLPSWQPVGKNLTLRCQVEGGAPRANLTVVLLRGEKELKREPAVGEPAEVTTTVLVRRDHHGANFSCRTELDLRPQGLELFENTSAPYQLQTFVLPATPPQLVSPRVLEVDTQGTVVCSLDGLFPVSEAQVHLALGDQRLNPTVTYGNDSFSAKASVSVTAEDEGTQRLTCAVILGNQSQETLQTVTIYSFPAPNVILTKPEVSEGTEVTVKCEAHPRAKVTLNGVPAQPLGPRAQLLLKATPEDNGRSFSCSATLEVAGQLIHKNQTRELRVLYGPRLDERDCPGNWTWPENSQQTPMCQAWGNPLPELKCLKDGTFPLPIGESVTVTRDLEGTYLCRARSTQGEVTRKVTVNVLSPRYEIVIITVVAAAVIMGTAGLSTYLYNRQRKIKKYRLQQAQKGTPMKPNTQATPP

response (Normalized MFI in %) | Substance
190 | αL-WT/β2-WT αL:K1097Y
230 | αL-WT/β2-WT αL:L1096Y
